± gives the half width of the 95% confidence interval.
Assays:
[1] = folding stability dG unfold from trypsin proteolysis; higher = more stable
In short: (§1)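 Mini-proteins designed to be under 80 residues and free of cysteine were carried in a PA-tagged cDNA display construct and digested with trypsin and with chymotrypsin. Each protease was applied at 11 threefold-diluted concentrations, alongside a no-protease condition, before sequencing. K50 came from Bayesian fitting of the sequencing counts, and unfolding free energy was obtained by comparing it with a sequence-predicted unfolded-state K50 and a shared folded-state K50, for each protease separately or for both together. Designs were retained only if their AlphaFold2 dimer inter-PAE exceeded 15.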

[2] = folding stability dG unfold from chymotrypsin proteolysis; higher = more stable
In short: as §1

[3] = folding stability dG unfold (combined trypsin and chymotrypsin); higher = more stable
In short: as §1

Q: For “SPTVTETTLIASEEDPSSGVKTELTETTTIVKVGGTTTEVTTTTTTLTPEEDGKGTSTVTPSTTTTPIPASA [r9_375_JUSTAS]”, which “folding stability dG unfold” value [1] is on record?
A: 0.84 ± 0.079 kcal/mol

Q: What about the “folding stability dG unfold” value [2] of the same sequence?
A: 1.45 ± 0.12 kcal/mol

Q: And the “folding stability dG unfold” value [3]?
A: 1.29 ± 0.12 kcal/mol

Q: What does the source list for “SAGGSAGGSLEVKVLGIVGDKPVEVTLPAGLGELTLEEIRAAFPPGEWRLVLRDENGNETPLTSAGGSAGGS [r12_540_TrMRF]”?
A: folding stability dG unfold [1]: 0.663 ± 0.089 kcal/mol; folding stability dG unfold [2]: -0.00936 ± 0.18 kcal/mol; folding stability dG unfold [3]: 0.446 ± 0.16 kcal/mol

Q: Which “folding stability dG unfold” value [1] does the source give for “SAGGAITLEYEVETEEEAEKAIEELEKELKEKFGGPVKIEKATIEKTEDPSVPREKYRLKLTIEINKSAGGS [r8_171_JUSTAS]” here?
A: 0.198 ± 0.13 kcal/mol

Q: What about the “folding stability dG unfold” value [2] of the same sequence?
A: 1.08 ± 0.11 kcal/mol

Q: And the “folding stability dG unfold” value [3]?
A: 0.858 ± 0.28 kcal/mol

Q: Which “folding stability dG unfold” value [1] does the source give for “SAGGSAGGSAGGSWKIDKFTSIERTDGGYVIRIRMENPDGPPMKQTFYFPPGDDELANISAGGSAGGSAGGS [r4_253_TrROS]” here?
A: 0.285 ± 0.21 kcal/mol

Q: And the “folding stability dG unfold” value [2]?
A: 0.242 ± 0.3 kcal/mol

Q: What about the “folding stability dG unfold” value [3] of the same sequence?
A: 0.344 ± 0.27 kcal/mol

Q: For “SAGGSAGGSAGMTIQIEILTTGDLEETKKKLEEELKKKYPSSLKVIIKLSHVPASEAPSDLGSAGGSAGGSA [r18_498_JUSTAS]”, which “folding stability dG unfold” value [1] is on record?
A: 0.969 ± 0.025 kcal/mol

Q: What about the “folding stability dG unfold” value [2] of the same sequence?
A: 1.19 ± 0.033 kcal/mol

Q: What about the “folding stability dG unfold” value [3] of the same sequence?
A: 1.13 ± 0.14 kcal/mol

Q: For “SAGGGPAKEVPILALIKARNPETGEEYELPIVITANSKEDVEAAKGLVDTLAEALRELGFTEVEVEIGSAGG [r13_360_TrMRF]”, which “folding stability dG unfold” value [1] is on record?
A: 2.97 ± 0.069 kcal/mol

Q: What about the “folding stability dG unfold” value [2] of the same sequence?
A: 2.72 ± 0.042 kcal/mol

Q: And the “folding stability dG unfold” value [3]?
A: 2.83 ± 0.058 kcal/mol

Q: What does the source list for “EEIIEKLKEEGYEIVSVSIKEVNGKKKIFIAVRRKDKPEYLLVEIDLENKEVKIKKVKKFPKGESIEDILSS [r1_383_TrROS_Hall]”?
A: folding stability dG unfold [1]: 2.95 ± 0.2 kcal/mol; folding stability dG unfold [2]: 3.98 ± 0.23 kcal/mol; folding stability dG unfold [3]: 3.56 ± 0.27 kcal/mol

Q: What does the source list for “SAGGNINDIAKKLGLPPGGMIMIKDFSLEWHRMPMRVPEEDNDKPKEEKEVPMPMYKAEIKISLFPADSAGG [r13_482_TrROS]”?
A: folding stability dG unfold [1]: 0.955 ± 0.056 kcal/mol; folding stability dG unfold [2]: 2 ± 0.13 kcal/mol; folding stability dG unfold [3]: 1.52 ± 0.22 kcal/mol

Q: With “SAGGSAGGMKIKVKFTITKSDPNSDSPVPRVITKEFESLEEAEKEFNKLKNLPSGYTVEVEIVESAGGSAGG [r7_0_JUSTAS]” as the sequence, how does the “folding stability dG unfold” value [1] read?
A: 3.16 ± 0.11 kcal/mol

Q: What about the “folding stability dG unfold” value [2] of the same sequence?
A: 3.82 ± 0.043 kcal/mol

Q: And the “folding stability dG unfold” value [3]?
A: 3.62 ± 0.1 kcal/mol

Q: What does the source list for “SAGGSMVITITFPDGSTVTIPEEELLELLKKYGIEPDESDKEKVAKEAAKIIGEEKGIPIKEVKINSAGGSA [r2_83_JUSTAS]”?
A: folding stability dG unfold [1]: 1.54 ± 0.059 kcal/mol; folding stability dG unfold [2]: 3.43 ± 0.092 kcal/mol; folding stability dG unfold [3]: 3.01 ± 0.066 kcal/mol

Q: What does the source list for “SAGGDSISDIESVNIYSFNIPSNPYPYIIAELTIPDGRKIIAIYDPSTNTVTIIIEDDGKPRIITLPASAGG [r13_960_TrMRF]”?
A: folding stability dG unfold [1]: 2.49 ± 0.1 kcal/mol; folding stability dG unfold [2]: 2.9 ± 0.12 kcal/mol; folding stability dG unfold [3]: 2.7 ± 0.11 kcal/mol

Q: With “MTIVIDTPVPPEEAEALLRELAEELGYSPELMEVEERVFSEGEDGRPYVTLTVRLPGLGVTITLRLPPDAAS [r1_21_JUSTAS]” as the sequence, how does the “folding stability dG unfold” value [1] read?
A: 3.61 ± 0.11 kcal/mol

Q: And the “folding stability dG unfold” value [2]?
A: 3.681 ± 0.02 kcal/mol

Q: And the “folding stability dG unfold” value [3]?
A: 3.66 ± 0.041 kcal/mol

Q: Which results are given for “SAGPYYVRITVSIYYPGNGAPHQHTIPIKGKTLDDIKDEIRDEIRDHGMKMDPGDEVEIQITDIEVYPGSAG [r5_230_TrROS]”?
A: folding stability dG unfold [1]: 0.905 ± 0.019 kcal/mol; folding stability dG unfold [2]: 1.55 ± 0.06 kcal/mol; folding stability dG unfold [3]: 1.28 ± 0.075 kcal/mol

Q: Which results are given for “SAGMSLVPLEELARAWAEERGLPVLDVEVPESRSPATRHVTITLTLRDPATGALTTETRELVIPEEELGSAG [r5_421_JUSTAS]”?
A: folding stability dG unfold [1]: 0.585 ± 0.077 kcal/mol; folding stability dG unfold [2]: 0.583 ± 0.096 kcal/mol; folding stability dG unfold [3]: 0.621 ± 0.1 kcal/mol

Q: With “SAGNYYRVEVENPSEGKKVTIHIFPNGMINVEHDGGEHWIMIPPDNPDQIEEIASELAPNGYEVDIEPWSAG [r5_791_TrROS]” as the sequence, how does the “folding stability dG unfold” value [1] read?
A: 0.593 ± 0.11 kcal/mol

Q: And the “folding stability dG unfold” value [2]?
A: 0.856 ± 0.27 kcal/mol

Q: And the “folding stability dG unfold” value [3]?
A: 0.774 ± 0.18 kcal/mol

Q: With “SAGIKPGEKIEKVEIVKVEVKKNKDGSKTVTVTIKLKDGKTITIKPGETIEIKIENKKEGEKITLKVKSAGG [r19_199_TrROS_Hall]” as the sequence, how does the “folding stability dG unfold” value [1] read?
A: 1.45 ± 0.13 kcal/mol

Q: What about the “folding stability dG unfold” value [2] of the same sequence?
A: 1.91 ± 0.13 kcal/mol

Q: What about the “folding stability dG unfold” value [3] of the same sequence?
A: 1.74 ± 0.16 kcal/mol

Q: For “KETVTLEFELEDGSKVRVEVDLETKEVKVEVEKPPAPPPPPVIVLPPGLTEEERERLIKELEKKGIKVVVLS [r1_242_TrROS_Hall]”, which “folding stability dG unfold” value [1] is on record?
A: 2.25 ± 0.13 kcal/mol

Q: What about the “folding stability dG unfold” value [2] of the same sequence?
A: 2.21 ± 0.09 kcal/mol

Q: What about the “folding stability dG unfold” value [3] of the same sequence?
A: 2.28 ± 0.13 kcal/mol

Q: For “SAGGSAGGSAGGKIIVVKDKETGKYRVIIVDKKTKKTIVVEVDPNTTLEEALKKAKELLKSAGGSAGGSAGG [r7_138_TrROS_Hall]”, which “folding stability dG unfold” value [1] is on record?
A: 3.05 ± 0.12 kcal/mol

Q: And the “folding stability dG unfold” value [2]?
A: 3.97 ± 0.12 kcal/mol

Q: What about the “folding stability dG unfold” value [3] of the same sequence?
A: 3.52 ± 0.24 kcal/mol

Q: Which results are given for “SAGGSAGGSAMVIEDPKTNKLIEVEKLPDGTYKVTIYDKKTGEKKTITMSKKDLEKLLKALSAGGSAGGSAG [r3_162_TrROS_Hall]”?
A: folding stability dG unfold [1]: 4.91 ± 0.44 kcal/mol; folding stability dG unfold [2]: 4.78 ± 0.14 kcal/mol; folding stability dG unfold [3]: 4.81 ± 0.36 kcal/mol

Q: For “SNNKRITIEIPFPMPAEQARNFMEAFGIKKIEYEKHDDPGYYRVKYTVPDDNVTIDIHIFPPPVPPGQKPSA [r9_1090_TrROS]”, which “folding stability dG unfold” value [1] is on record?
A: 1.23 ± 0.024 kcal/mol

Q: And the “folding stability dG unfold” value [2]?
A: 1.83 ± 0.15 kcal/mol

Q: And the “folding stability dG unfold” value [3]?
A: 1.67 ± 0.13 kcal/mol

Q: What does the source list for “SAGGSAGGMLTFTFSLSEIPPYPSGSLSLEEVKKRMEPILRKLLGRKDVKIKVESLPDGTIRVTVESAGGSA [r15_562_JUSTAS]”?
A: folding stability dG unfold [1]: 3.95 ± 0.25 kcal/mol; folding stability dG unfold [2]: 4.99 ± 0.23 kcal/mol; folding stability dG unfold [3]: 4.37 ± 0.27 kcal/mol

Q: Which results are given for “SAGGSAGGPVSVDPSTGTVTITVPPGTATPVVEAIAAALGLPVETATTPLPDGTTTVTVTIPAASAGGSAGG [r6_419_JUSTAS]”?
A: folding stability dG unfold [1]: 0.733 ± 0.1 kcal/mol; folding stability dG unfold [2]: 0.816 ± 0.1 kcal/mol; folding stability dG unfold [3]: 0.844 ± 0.22 kcal/mol

Q: For “SAGGSAGGSAPWYIAIYMPGNGRKRTYPFKSADDIKEEIKEHLGPGMNPDNVEIKIIPPDDISAGGSAGGSA [r18_350_TrROS]”, which “folding stability dG unfold” value [1] is on record?
A: 0.279 ± 0.14 kcal/mol

Q: And the “folding stability dG unfold” value [2]?
A: -0.782 ± 0.81 kcal/mol

Q: What about the “folding stability dG unfold” value [3] of the same sequence?
A: -0.0945 ± 0.38 kcal/mol

Q: With “SAGGSPGQPYYIMIKLEWENPEDGEEHTFDIMFPVKSAEDAKDYILKELLPPGHKLKIDDISIMPMSAGGSA [r2_320_TrROS]” as the sequence, how does the “folding stability dG unfold” value [1] read?
A: 1.48 ± 0.022 kcal/mol

Q: What about the “folding stability dG unfold” value [2] of the same sequence?
A: 1.19 ± 0.1 kcal/mol

Q: What about the “folding stability dG unfold” value [3] of the same sequence?
A: 1.4 ± 0.15 kcal/mol

Q: What does the source list for “SAMTKTETFTFDDVEITVTTTEVTLPNGEKKDVYTLTKYTVDPSTGTTTPSSKTFSSKEEMEAALKASLSAG [r14_500_JUSTAS]”?
A: folding stability dG unfold [1]: 3.6 ± 0.27 kcal/mol; folding stability dG unfold [2]: 4.036 ± 0.04 kcal/mol; folding stability dG unfold [3]: 3.97 ± 0.16 kcal/mol

Q: With “SAGGSAGGSAMITSDDLEKLLKKLGIDPKKLGPEKLAKIFKELYPDAIITADPEGKAYIYPSAGGSAGGSAG [r3_375_TrMRF]” as the sequence, how does the “folding stability dG unfold” value [1] read?
A: 1.72 ± 0.07 kcal/mol

Q: What about the “folding stability dG unfold” value [2] of the same sequence?
A: 0.467 ± 0.19 kcal/mol

Q: And the “folding stability dG unfold” value [3]?
A: 1.2 ± 0.14 kcal/mol

Q: With “SAMVVTYDPATGKITVNVTLYVEEPLTPEERAALAAAIKAALAAAHPDVDVTVTLHPAPSPEEVEKLAASAG [r14_406_JUSTAS]” as the sequence, how does the “folding stability dG unfold” value [1] read?
A: 2.92 ± 0.14 kcal/mol

Q: And the “folding stability dG unfold” value [2]?
A: 2.23 ± 0.058 kcal/mol

Q: And the “folding stability dG unfold” value [3]?
A: 2.47 ± 0.12 kcal/mol

Q: Which results are given for “SAGGYVTSPMSPEIEAKAKEAGKTIDEAKELVIPVNDGGKFRTVKVTFYPETGTVAFYYEDTGEWSNLLSAG [r5_545_JUSTAS]”?
A: folding stability dG unfold [1]: 0.499 ± 0.12 kcal/mol; folding stability dG unfold [2]: 1.05 ± 0.19 kcal/mol; folding stability dG unfold [3]: 0.957 ± 0.22 kcal/mol

Q: Which “folding stability dG unfold” value [1] does the source give for “SAGGSAGGSAGMKIKTKNGEVIEIKVDKKTGKIEITFPDGKKITIDAPNLTIEDIKKLLESAGGSAGGSAGG [r11_729_TrMRF]” here?
A: 2.47 ± 0.064 kcal/mol

Q: What about the “folding stability dG unfold” value [2] of the same sequence?
A: 2.34 ± 0.047 kcal/mol

Q: What about the “folding stability dG unfold” value [3] of the same sequence?
A: 2.36 ± 0.051 kcal/mol

Q: For “SAGGSAGGSAGGKYKILKIEKYKLPNGGYYYKALVYEEENGEWKEIYAKANSAKNFKFESAGGSAGGSAGGS [r10_326_TrMRF]”, which “folding stability dG unfold” value [1] is on record?
A: 0.828 ± 0.049 kcal/mol

Q: And the “folding stability dG unfold” value [2]?
A: 1.16 ± 0.11 kcal/mol

Q: What about the “folding stability dG unfold” value [3] of the same sequence?
A: 1.08 ± 0.1 kcal/mol

Q: What does the source list for “SAGGSAGGSAGYESVVNELKRKGYKVEVKKTPDGTYVVTVTKKDGTVETITLGPEGGKISSAGGSAGGSAGG [r17_503_JUSTAS]”?
A: folding stability dG unfold [1]: 2.67 ± 0.14 kcal/mol; folding stability dG unfold [2]: 4.36 ± 0.12 kcal/mol; folding stability dG unfold [3]: 4.16 ± 0.15 kcal/mol
